In patent US20020177177A1 (PROLIFIX, published 2002):

Target: T1, E. coli-produced 6X histidine-tagged cyclin D1 (UniProt P24385 1-295, limits assumed)
T1 construct: also called His-cyclin D1; His-D1; not shown: 6X histidine tag
Assay: GST pull-down on glutathione-agarose, anti-cyclin D1 Western blot
Description: To ask which domain or motif of SRC-1 is involved in cyclin D1 binding, we generated a series a GST-SRC1 deletion mutants. […] In the in vitro binding assay, the series of GST-containing proteins were incubated with bacterially expressed His-tagged cyclin D1 and immobilized on glutathione-agarose. Cyclin D1 binding was detected by Western blot analysis using anti-cyclin D1 antibody. Binding was not detected to GST alone.

T1 sequence (P24385 whole entry): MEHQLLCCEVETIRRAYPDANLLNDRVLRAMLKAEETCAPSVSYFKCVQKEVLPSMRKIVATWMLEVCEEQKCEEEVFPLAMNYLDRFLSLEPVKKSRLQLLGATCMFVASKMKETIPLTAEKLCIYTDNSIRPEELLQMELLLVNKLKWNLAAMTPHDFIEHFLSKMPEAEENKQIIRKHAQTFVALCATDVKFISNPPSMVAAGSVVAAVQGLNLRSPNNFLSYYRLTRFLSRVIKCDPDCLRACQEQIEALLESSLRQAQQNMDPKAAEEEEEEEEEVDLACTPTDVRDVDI

B1: GST-SRC1 361-568 (other, human, UniProt Q15788 361-568, looked up)
chain: IHIIDREHSGLSPQDDTNSGMSIPRVNPSVNPSISPAHGVARSSTLPPSNSNMVSTRINRQQSSDLHSSSHSNSSNSQGSFGCSPGSQIVANVALNQGQASSQSSNPSLNLNNSPMEGTGISLAQFMSPRRQVTSGLATRPRMPNNSFPPNISTLSSPVGMTSSACNNNNRSYSNIPVTSLQGMNEGPNNSVGFSASSPVLRQMSSQN
notes: not shown: glutathione-S-transferase (GST) fusion partner
B1: no binding.
